Key:
Fibrinogen Fragment D = biological target: T1, Fibrinogen Fragment D (human, UniProt P02671 124-216; P02675 164-491; P02679 89-437); experiment: BLI
T1 chain 1: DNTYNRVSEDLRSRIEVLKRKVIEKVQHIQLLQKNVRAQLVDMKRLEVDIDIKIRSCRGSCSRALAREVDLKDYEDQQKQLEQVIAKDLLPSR
T1 chain 2: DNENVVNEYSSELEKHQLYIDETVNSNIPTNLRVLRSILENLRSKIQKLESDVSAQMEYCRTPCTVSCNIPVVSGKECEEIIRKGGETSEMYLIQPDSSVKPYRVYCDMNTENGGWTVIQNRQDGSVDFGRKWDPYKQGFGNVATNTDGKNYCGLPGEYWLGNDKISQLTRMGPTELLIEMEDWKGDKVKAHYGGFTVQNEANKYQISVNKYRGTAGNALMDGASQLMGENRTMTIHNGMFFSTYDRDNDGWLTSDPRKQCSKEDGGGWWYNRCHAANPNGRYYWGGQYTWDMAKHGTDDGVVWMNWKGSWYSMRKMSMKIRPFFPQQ
T1 chain 3: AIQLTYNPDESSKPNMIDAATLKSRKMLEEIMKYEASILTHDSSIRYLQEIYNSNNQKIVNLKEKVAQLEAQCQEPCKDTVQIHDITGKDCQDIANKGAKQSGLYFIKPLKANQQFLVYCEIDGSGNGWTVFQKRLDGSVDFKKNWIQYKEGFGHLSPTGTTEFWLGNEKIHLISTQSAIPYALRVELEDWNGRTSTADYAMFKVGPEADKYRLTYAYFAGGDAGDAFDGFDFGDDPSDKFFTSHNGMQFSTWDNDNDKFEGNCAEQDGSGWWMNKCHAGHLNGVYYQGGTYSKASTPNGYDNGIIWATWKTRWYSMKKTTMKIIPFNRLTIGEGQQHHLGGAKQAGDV

Fragment DD from fibrin = biological target: T2, Fragment DD from fibrin (human, UniProt P02671 124-216; P02675 164-491; P02679 89-437); experiment: BLI
T2 chain 1: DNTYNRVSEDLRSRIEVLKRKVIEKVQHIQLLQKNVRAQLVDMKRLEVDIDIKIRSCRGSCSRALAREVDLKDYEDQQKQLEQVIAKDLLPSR
T2 chain 2: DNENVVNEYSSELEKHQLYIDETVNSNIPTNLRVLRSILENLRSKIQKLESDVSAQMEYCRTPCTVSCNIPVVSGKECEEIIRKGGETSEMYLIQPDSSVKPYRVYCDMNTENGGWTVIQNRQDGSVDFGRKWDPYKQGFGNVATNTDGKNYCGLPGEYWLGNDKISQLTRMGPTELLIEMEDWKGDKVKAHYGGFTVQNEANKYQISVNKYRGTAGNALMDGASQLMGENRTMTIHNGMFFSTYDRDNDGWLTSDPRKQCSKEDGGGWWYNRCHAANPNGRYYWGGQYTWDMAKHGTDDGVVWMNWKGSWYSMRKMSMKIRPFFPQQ
T2 chain 3: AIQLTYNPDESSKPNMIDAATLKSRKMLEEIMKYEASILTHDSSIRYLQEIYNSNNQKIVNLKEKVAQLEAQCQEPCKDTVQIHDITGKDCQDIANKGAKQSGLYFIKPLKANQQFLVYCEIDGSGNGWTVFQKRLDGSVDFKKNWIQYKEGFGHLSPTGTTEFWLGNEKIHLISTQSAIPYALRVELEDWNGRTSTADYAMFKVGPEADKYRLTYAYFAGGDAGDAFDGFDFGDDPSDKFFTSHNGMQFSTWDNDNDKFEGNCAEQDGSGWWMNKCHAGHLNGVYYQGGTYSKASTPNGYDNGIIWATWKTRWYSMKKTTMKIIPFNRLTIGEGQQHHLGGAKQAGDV

- Kd (Fibrinogen Fragment D): 36.8 nM
- Kd (Fragment DD from fibrin): 0.417 nM
B1: recombinant antibody #12 (antibody, V domains shown)
VH: QVQLQQPGAEVVRPGASVKLSCKASGYSFTSYWIHWLKQGPHQGLEWIGRIDPDDSETHYNQKFKDKALLTVDKSSSTAYMQLRSLTSEDSAVYYCARTNWDAWFAYWGQGTLVTVSA
VL: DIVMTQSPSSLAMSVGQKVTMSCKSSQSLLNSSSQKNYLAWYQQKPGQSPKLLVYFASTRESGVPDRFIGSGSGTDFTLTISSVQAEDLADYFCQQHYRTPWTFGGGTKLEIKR
